Data published in the supplement of paper PMC11246515.
± gives the standard deviation of the averaged measurements.

Assay: total protein half-life in vivo (active degradation + dilution); higher = more stable protein
[1] = E. coli NCM3722 delta-clpP delta-lon delta-hslV, growth: N-lim chemostat, doubling time 6 h
[2] = E. coli NCM3722 delta-clpP, growth: N-lim chemostat, doubling time 6 h
[3] = E. coli NCM3722 delta-hslV, growth: N-lim chemostat, doubling time 6 h
[4] = E. coli NCM3722 delta-lon, growth: N-lim chemostat, doubling time 6 h
[5] = E. coli NCM3722 delta-smpB, growth: N-lim chemostat, doubling time 6 h
[6] = wild type E. coli NCM3722, growth: C-lim chemostat, doubling time 3 h
[7] = wild type E. coli NCM3722, growth: C-lim chemostat, doubling time 6 h
[8] = wild type E. coli NCM3722, growth: C-lim chemostat, doubling time 12 h
[9] = wild type E. coli NCM3722, growth: N-lim chemostat, doubling time 6 h
[10] = wild type E. coli NCM3722, growth: N-lim chemostat, doubling time 12 h
[11] = wild type E. coli NCM3722, growth: P-lim chemostat, doubling time 6 h
[12] = wild type E. coli NCM3722, growth: P-lim chemostat, doubling time 12 h

| Sequence | total protein half-life in vivo [1] [h] | total protein half-life in vivo [2] [h] | total protein half-life in vivo [3] [h] | total protein half-life in vivo [4] [h] | total protein half-life in vivo [5] [h] | total protein half-life in vivo [6] [h] | total protein half-life in vivo [7] [h] | total protein half-life in vivo [8] [h] | total protein half-life in vivo [9] [h] | total protein half-life in vivo [10] [h] | total protein half-life in vivo [11] [h] | total protein half-life in vivo [12] [h] |
| --- | --- | --- | --- | --- | --- | --- | --- | --- | --- | --- | --- | --- |
| MPEQYRYTLPVKAGEQRLLGELTGAACATLVAEIAERHAGPVVLIAPDMQNALRLHDEISQFTDQMVMNLADWETLPYDSFSPHQDIISSRLSTLYQLPTMQRGVLIVPVNTLMQRVCPHSFLHGHALVMKKGQRLSRDALRTQLDSAGYRHVDQVMEHGEYATRGALLDLFPMGSELPYRLDFFDDEIDSLRVFDVDSQRTLEEVEAINLLPAHEFPTDKAAIELFRSQWRDTFEVKRDPEHIYQQVSKGTLPAGIEYWQPLFFSEPLPPLFSYFPANTLLVNTGDLETSAERFQADTLARFENRGVDPMRPLLPPQSLWLRVDELFSELKNWPRVQLKTEHLPTKAANANLGFQKLPDLAVQAQQKAPLDALRKFLETFDGPVVFSVESEGRREALGELLARIKIAPQRIMRLDEASDRGRYLMIGAAEHGFVDTVRNLALICESDLLGERVARRRQDSRRTINPDTLIRNLAELHIGQPVVHLEHGVGRYAGMTTLEAGGITGEYLMLTYANDAKLYVPVSSLHLISRYAGGAEENAPLHKLGGDAWSRARQKAAEKVRDVAAELLDIYAQRAAKEGFAFKHDREQYQLFCDSFPFETTPDQAQAINAVLSDMCQPLAMDRLVCGDVGFGKTEVAMRAAFLAVDNHKQVAVLVPTTLLAQQHYDNFRDRFANWPVRIEMISRFRSAKEQTQILAEVAEGKIDILIGTHKLLQSDVKFKDLGLLIVDEEHRFGVRHKERIKAMRANVDILTLTATPIPRTLNMAMSGMRDLSIIATPPARRLAVKTFVREYDSMVVREAILREILRGGQVYYLYNDVENIQKAAERLAELVPEARIAIGHGQMRERELERVMNDFHHQRFNVLVCTTIIETGIDIPTANTIIIERADHFGLAQLHQLRGRVGRSHHQAYAWLLTPHPKAMTTDAQKRLEAIASLEDLGAGFALATHDLEIRGAGELLGEEQSGSMETIGFSLYMELLENAVDALKAGREPSLEDLTSQQTEVELRMPSLLPDDFIPDVNTRLSFYKRIASAKTENELEEIKVELIDRFGLLPDPARTLLDIARLRQQAQKLGIRKLEGNEKGGVIEFAEKNHVNPAWLIGLLQKQPQHYRLDGPTRLKFIQDLSERKTRIEWVRQFMRELEENAIA | 5.59 ± 0.3 | 5.07 ± 0.12 | 5.1 ± 0.13 | 5.12 ± 0.13 | 5.021 ± 0.009 | 3.07 ± 0.11 | 6.0491 ± 0.00051 | 11.4 ± 0.52 | 4.9912 ± 0.001 | 8.76 ± 0.27 | 5.92 ± 0.57 | 11.3 ± 0.21 |
| MPEVQTDHPETAELSKPQLRMVDLNLLTVFDAVMQEQNITRAAHVLGMSQPAVSNAVARLKVMFNDELFVRYGRGIQPTARAFQLFGSVRQALQLVQNELPGSGFEPASSERVFHLCVCSPLDSILTSQIYNHIEQIAPNIHVMFKSSLNQNTEHQLRYQETEFVISYEDFHRPEFTSVPLFKDEMVLVASKNHPTIKGPLLKHDVYNEQHAAVSLDRFASFSQPWYDTVDKQASIAYQGMAMMSVLSVVSQTHLVAIAPRWLAEEFAESLELQVLPLPLKQNSRTCYLSWHEAAGRDKGHQWMEEQLVSICKR | 5.69 ± 0.67 | 1.07 |  |  |  |  |  |  |  |  |  |  |
| MPFRSNNPITRDELLSRFFPQYHPVTTFNSGLSGGSFLIEHQGQRFVVRQPHDPDAPQSAFLRQYRALSQLPACIAPKPHLYLRDWMVVDYLPGAVKTYLPDTNELAGLLYYLHQQPRFGWRITLLPLLELYWQQSDPARRTVGWLRMLKRLRKAREPRPLRLSPLHMDVHAGNLVHSASGLKLIDWEYAGDGDIALELAAVWVENTEQHRQLVNDYATRAKIYPAQLWRQVRRWFPWLLMLKAGWFEYRWRQTGDQQFIRLADDTWRQLLIKQ | 6.3 ± 0.21 | 6.27 ± 0.31 | 6.3 | 6.04 ± 0.35 | 5.66 |  | 7.13 | > 16 | 6.24 ± 0.49 | 13.6 | 5.96 | 11.1 |
| MPGLKITLLQQPLVWMDGPANLRHFDRQLEGITGRDVIVLPEMFTSGFAMEAAASSLAQDDVVNWMTAKAQQCNALIAGSVALQTESGSVNRFLLVEPGGTVHFYDKRHLFRMADEHLHYKAGNARVIVEWRGWRILPLVCYDLRFPVWSRNLNDYDLALYVANWPAPRSLHWQALLTARAIENQAYVAGCNRVGSDGNGCHYRGDSRVINPQGEIIATADAHQATRIDAELSMAALREYREKFPAWQDADEFRLW | 4.72 ± 0.34 | 4.042 ± 0.0079 | 4.46 ± 0.63 | 4.4 ± 0.72 | 3.9 ± 0.082 | 2.74 ± 0.14 | 5.22 ± 0.33 | 11.7 ± 4.7 | 4.42 ± 0.34 | 6.49 | 5.74 ± 0.18 | 10.8 ± 0.35 |
| MPKKNEAPASFEKALSELEQIVTRLESGDLPLEEALNEFERGVQLARQGQAKLQQAEQRVQILLSDNEDASLTPFTPDNE [P0A8G9] | 7.56 | 5.9 | 6.62 |  |  |  | 6.16 ± 0.35 | 14.4 | 5.09 ± 0.59 |  | 4.86 ± 0.049 | 14.2 ± 1.7 |
| MPKLGMQSIRRRQLIDATLEAINEVGMHDATIAQIARRAGVSTGIISHYFRDKNGLLEATMRDITSQLRDAVLNRLHALPQGSAEQRLQAIVGGNFDETQVSSAAMKAWLAFWASSMHQPMLYRLQQVSSRRLLSNLVSEFRRELPREQAQEAGYGLAALIDGLWLRAALSGKPLDKTRANSLTRHFITQHLPTD | 4.85 ± 0.33 | 4.25 |  | 4.46 |  |  |  |  | 4.99 |  |  |  |
| MPKLILASTSPWRRALLEKLQISFECAAPEVDETPRSDESPRQLVLRLAQEKAQSLASRYPDHLIIGSDQVCVLDGEITGKPLTEENARLQLRKASGNIVTFYTGLALFNSANGHLQTEVEPFDVHFRHLSEAEIDNYVRKEHPLHCAGSFKSEGFGITLFERLEGRDPNTLVGLPLIALCQMLRREGKNPLMG [P0A729] | 4.57 ± 0.6 |  | 4.118 ± 0.0072 |  | 3.68 ± 0.16 | 3.14 ± 0.5 | 5.174 ± 0.02 | 8.34 ± 0.7 | 3.77 ± 0.35 | 6.24 ± 0.41 | 5.45 ± 0.28 | 12.1 ± 0.56 |
